{"source": "patent US20250236663A1", "binders": {"B1": {"name": "Anti-FAM19A5 (P2-C12) (antibody, V domains shown)", "VH": "QSLEESGGRLVTPGTPLTLTCTVSGFSLSTYAVTWVRQAPGKGLEWIGYINWRGGTSYANWAKGRFTISKTSSTTVDLKMTSPTTEDTATYFCARDASSGAAFGSYGMDPWGPGTLVTVSS", "VL": "ELDMTQTPSSVSAAVGGTVTIKCQASQSISSYLSWYQQKPGQPPKLLIYEASKLASGVPSRFSGSGYGTEFTLTISDLECADAATYYCQQGYSSTNVWNAFGGGTNVEIK"}}, "key": {"[1]": {"biological_target": "FAM19A5 epitope fragment F1 (BSA-conjugated) (human)", "assay": "ELISA on the coated BSA-conjugated fragment"}, "[2]": {"biological_target": "FAM19A5 epitope fragment F2 (BSA-conjugated) (human)", "assay": "ELISA on the coated BSA-conjugated fragment"}, "[3]": {"biological_target": "FAM19A5 epitope fragment F6 (BSA-conjugated) (human)", "assay": "ELISA on the coated BSA-conjugated fragment"}, "[4]": {"biological_target": "FAM19A5 epitope fragment F4 (BSA-conjugated) (human)", "assay": "ELISA on the coated BSA-conjugated fragment"}, "[5]": {"biological_target": "FAM19A5 epitope fragment F3 (BSA-conjugated) (human)", "assay": "ELISA on the coated BSA-conjugated fragment"}, "[6]": {"biological_target": "Recombinant human FAM19A5 protein (His-tagged) (human) (UniProt Q7Z5A7)", "assay": "ELISA on coated His-tagged FAM19A5 (positive control); the bar ends at the top of the axis"}, "[7]": {"biological_target": "Recombinant human FAM19A5 protein (His-tagged) (human) (UniProt Q7Z5A7)", "assay": "ELISA, N'-Term His; R² 0.9422"}, "[8]": {"biological_target": "Recombinant human FAM19A5 protein (His-tagged) (human) (UniProt Q7Z5A7)", "assay": "ELISA, N'-Term His", "parameters": "unit not given here"}}, "data": [{"binder": "B1", "values": [{"measurement": "O.D (492nm)", "setting": "[1]", "value": 0.139}, {"measurement": "O.D (492nm)", "setting": "[2]", "value": 0.394}, {"measurement": "O.D (492nm)", "setting": "[3]", "value": 0.139}, {"measurement": "O.D (492nm)", "setting": "[4]", "value": 0.162}, {"measurement": "O.D (492nm)", "setting": "[5]", "value": 0.224}, {"measurement": "O.D (492nm)", "setting": "[6]", "value": 4}, {"measurement": "Kd", "setting": "[7]", "value": 7.64, "unit": "nM"}, {"measurement": "Bmax", "setting": "[8]", "value": 1.73}]}]}
